# Data published in PMC9888390, “A non-neutralizing glycoprotein B monoclonal antibody protects against herpes simplex virus disease in mice” (The Journal of Clinical Investigation, 2023).
# B1: HSV010-13 recombinant mouse IgG (antibody, V domains shown)
# VH: QVQLQQPGAELVKPGASVKLSCKASGYTFTSYWIHWVKQGPGQGLEWIGMIHPNSGITHYNEKFKTKATLTVDKSSSTAYMQLSSLTSEDSAVCYCARGSSSGSAWFAYWGQGTLVTVSA
# VL: DIQMTQSSSYLSESLGGRVTITCKASDHINNWLAWYQQKPGNAPRLLISGATSLETGVPSRFSGSGSGKDYTLSITSLQTEDVATYYCQQYWSSPLTFGAGTKLELK
# notes: VH of HSV010-13 (germinal center B cell of a ΔgD-2-vaccinated C57BL/6 mouse); VL of HSV010-13; Member of a clonal lineage of five (HSV010-6, -9, -13, -14, -15); source: Expi293F, transient transfection, purified from culture supernatant (protein G spin columns); copies: 2 + 2
# B2: HSV010-13 Fab (Fab, V domains shown)
# VH: B1 VH
# VL: B1 VL
# notes: Fab part of the heavy chain of m5; as the light chain of m5; The methods tell how the Fab was made only for BMPC-23; also called Fab fragment of HSV010-13
# B3: BMPC-23 recombinant mouse IgG (antibody, V domains shown)
# VH: QVQLQQSGPELVKPGASVKLSCKASGYSFTTYDINWVKERPGQGLEWIGWIYPREGSTNYNEKFRGKATLTADTSSSTAYMELHSLTSEDSAVYFCATYGSSRYYTMDYWGQGTSVTVSS
# VL: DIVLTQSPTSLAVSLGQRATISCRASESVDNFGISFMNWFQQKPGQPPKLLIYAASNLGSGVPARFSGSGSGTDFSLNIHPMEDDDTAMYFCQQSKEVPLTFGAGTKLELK
# notes: VH of BMPC-23 (bone marrow plasmacyte of a ΔgD-2-vaccinated C57BL/6 mouse); mouse IgG1 or IgG2c constant region from the expression vector; VL of BMPC-23; Cloned into both mouse IgG1 and IgG2c vectors; also called BMPC-23 (IgG2c); mIgG2c BMPC-23; source: Expi293F, transient transfection, purified from culture supernatant (protein G spin columns); copies: 2 + 2
# B4: BMPC-23 Fab (Fab, V domains shown)
# VH: B3 VH
# VL: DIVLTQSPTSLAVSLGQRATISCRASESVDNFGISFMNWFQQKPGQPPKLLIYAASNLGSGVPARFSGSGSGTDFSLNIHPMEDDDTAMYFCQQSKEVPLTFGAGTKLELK
# notes: as the heavy chain of m1 up to the papain cut; as the light chain of m1; also called Fab of BMPC-23; Fab portion of BMPC-23; source: from intact BMPC-23 (Expi293F) by cleavage with immobilized papain; purified by subtractive protein A chromatography
# How the values were obtained:
# [1] = molecular target: T1, Recombinant HSV-1 glycoprotein B, soluble ectodomain (Human herpesvirus 1, strain  …, UniProt P06437); experiment: Luminex bead binding assay; HSV-1 gB coupled to carboxylated beads; rAbs serially diluted from 2 μg/mL (3-fold, 11 dilutions) in PBS with 1% BSA, 0.05% NaN3, 0.05% Tween-20 and 1% milk, 2 hours; detected with PE-conjugated goat anti-mouse IgG; settings: both partners purified
# T1 construct: glycoprotein B of herpes simplex virus 1, soluble ectodomain, postfusion state; The printed limits 31-70 are perhaps a misprint of 31-730 (surmised). 'epo' in the name is perhaps a foreign signal peptide (surmised); also called gB; gB-1; not shown: His tag, C-terminal, kept
# [2] = molecular target: T1, Recombinant HSV-1 glycoprotein B, …; experiment: cryo-EM structure; gB 2.5 mg/mL with a 2-fold molar excess of Fab (3 mg/mL), 0.08% n-octyl-β-D-glucoside; Titan Krios 300 keV, K3 detector; gB in the postfusion state; settings: both partners purified
# [3] = molecular target: glycoprotein B of HSV-2(G), from infected HaCaT cells (Human herpesvirus 2, strain G, UniProt A0A0D4CHI5, strain); experiment: affinity purification with mass spectrometry; RIPA lysate of HSV-2(G)-infected HaCaT cells incubated overnight at 4°C with 1 mg/mL mAb; Protein A resin; elution with glycine-HCl pH 2.5-3.0; SDS-PAGE, in-gel trypsin digestion, nano-LC-MS/MS; settings: one partner purified
# [4] = molecular target: T2, glycoprotein B of HSV-2(4674), from infected Vero cells (Human herpesvirus 2, clinical isolate …, UniProt P08666, strain); experiment: Western blot; HSV-2(4674)-infected or uninfected Vero cell lysates (10 μg per lane) separated by PAGE with β-mercaptoethanol, blotted and probed with BMPC-23 (10 μg/mL) overnight; anti-mouse IgG-HRP; settings: one partner purified
# T2 construct: glycoprotein B of herpes simplex virus 2, clinical isolate 4674, as made in infected cells; Seen as a band of about 100 kDa or about 116 kDa on a reducing gel; also called gB; monomeric gB; source: Vero cells infected with HSV-2(4674), in lysate
# [5] = molecular target: T1, Recombinant HSV-1 glycoprotein B, …; experiment: BLI; OctetRed96; gB (C-terminal His tag) captured on anti-His (HIS2) biosensors at 1 ng/μL, dipped into increasing concentrations of BMPC-23 Fab; 1:1 binding model; apparent KD derived from on and off rates; settings: both partners purified
binder,measurement,setting,value
B1,binding result,[1],binds
B2,binding result,[2],binds
B3,binding result,[3],binds
same,binding result,[4],binds
same,binding result,[1],binds
B4,Kd,[5],10 nM
